{"source": "patent US20100113339A1", "about": "(Ablynx, published 2010)", "target": "T1, mouse serum albumin (mouse, UniProt P07724 25-608)", "T1 construct": "also called Mouse albumin", "T1 sequence (P07724 25-608 limits assumed)": "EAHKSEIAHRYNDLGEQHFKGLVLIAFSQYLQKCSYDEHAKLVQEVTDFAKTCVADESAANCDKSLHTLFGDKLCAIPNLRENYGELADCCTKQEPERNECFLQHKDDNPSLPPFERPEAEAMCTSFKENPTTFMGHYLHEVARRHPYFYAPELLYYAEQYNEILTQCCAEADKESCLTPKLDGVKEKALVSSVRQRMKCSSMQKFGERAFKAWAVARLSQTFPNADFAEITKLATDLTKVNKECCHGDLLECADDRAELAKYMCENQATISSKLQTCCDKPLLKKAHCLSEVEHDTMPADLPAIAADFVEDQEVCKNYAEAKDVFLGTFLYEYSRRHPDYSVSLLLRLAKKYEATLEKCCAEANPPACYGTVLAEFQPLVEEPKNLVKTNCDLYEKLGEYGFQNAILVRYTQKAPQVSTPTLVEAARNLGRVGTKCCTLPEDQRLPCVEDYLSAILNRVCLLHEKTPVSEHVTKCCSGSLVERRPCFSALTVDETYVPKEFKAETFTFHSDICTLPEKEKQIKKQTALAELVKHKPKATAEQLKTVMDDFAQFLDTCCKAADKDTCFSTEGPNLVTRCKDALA", "assay": "SPR Biacore 3000; mouse albumin against human/rhesus albumin as reference", "data": [{"binder": "PMP6A8 (ALB2) (VHH) VHH: AVQLVESGGGLVQGGGSLRLACAASERIFDLNLMGWYRQGPGNERELVATCITVGDSTNYADSVKGRFTISMDYTKQTVYLHMNSLRPEDTGLYYCKIRRTWHSELWGQGTQVTVSS", "values": [{"measurement": "factor of difference in affinity for human/rhesus versus mouse serum albumin", "result": 400, "unit": "fold"}]}]}
